From the nanobody polyreactivity screen of Harvey et al. (2022)

Assay: yeast display, Sf9 membrane polyspecificity reagent, FACS + sequencing; frameworks hold sequencing errors
Procedure, shortened: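 Galactose induction of a Saccharomyces cerevisiae BJ5465 synthetic nanobody display library ran 36–48 hours. The cells were then stained for 1 hour at 4 °C with 10% biotinylated, detergent-solubilized Sf9 membrane reagent, pulled down on streptavidin microbeads and FACS-sorted into low and high (top ~1%) gates on expression and reagent-binding fluorescence. Labels for polyreactivity follow the gate of origin.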

| Sequence | polyreactivity (PSR sort gate) |
| --- | --- |
| QVQLVESGGGLVQAGGSLRLSCAASGIIFSYYDMGWYRQAPGKERELVATITGNGGSTYYADSVKGRFTISRDNAKNTVYLQMNSLKPEDTAVYYCAAQTTVYIYDYWGQGTQVTVSS | low polyreactivity |
| QVQLVESGGGLVQAGGSLRLSCAASGYIFGTDAMGRYRQAPGKERELVAAISSTGRTYYADSVKGRFTISRDNAKNTVYLQMNSLKPEDTAVYYCAADVRTPSEGYDYWGQGTQVTVSS | high polyreactivity |
| QVHLVESGGGLVQAGGSLRLSCYASGRIFRYYAMGWYRQPPGKERELVAVINCSGGSTYYAVSVKGRFTISRDNAKNSVYLQMNSLKPEDTAVYYCYVYSVYPQFNYWGQGTQVTVSS | high polyreactivity |
| QVQLVESGGGLVQAGGSLRLSCAASGSTFLYYAMGWYRQAPGKERELVARITTRVGRTYYADSVKGRFTISRDNAKNTVYLQMNSLKPEDTAVYYCAAYPDYSYYYWGQGTQVTVSS | high polyreactivity |
| QVQLVESGGGLVQAGGSLRLSCAASGIIFPRYAMGWYRQAPGKERELVAAITIGGRTNYSDSVKGRFTISRDNAKNTVYLQMNSLKPEDTAVYYCAAQTYVPYYEYDYWGQGTQVTVSS | low polyreactivity |
| QVQLVESGGGLVQAGGSLRLSCAASGFIFKGYAMGWYRQSPGKERELVAVISTSGDRTYYADSVKGRFTISRDNAKNTVYLQMNSLKPEDTAVYYCAAKASPYGGRQKGYDYWGQGTQVTVSS | high polyreactivity |
| QVQLVESGGGLFQAGGSLRLSCAASGNTFLRNAMGWYRQPPWKERELVAAISRSGGRTYYADSVKGSFTISRDNAKNTVYLQMISLKPDDTAVYYCAVVTQFGDGYYWGQGTQVTVSS | high polyreactivity |
| QVQLVESGGGLVQAGGSLRLSCAASGFILSVYAMGWYRQAPGTETELVAAISKRGGSTNYADSVKGRFTISRDNAKDTVYLQMNSLKPEDTAVYYCAKARAGFLYDHWGQGTQVTVSS | high polyreactivity |
| QVQLHESGGGLVQAGGSLRLSCAASGTITDSGLMGWYRQAPGKERELVAGISSGGITNYADSVKGRFTISRDNAKNTVYLQMNSLKPEDTAVYWGQGTQVTVSS | low polyreactivity |
| QVQLVESGGGLVQAGGSLRLSCAASGSTFDNYAMGWYRQAPGKERELVAAITTGVTTYYADSVKGRFTISRDNAKNTVYLQMISLKPEDTAVYYCAADYVSYSQARHEYGYWGQGTQVTVSS | low polyreactivity |
| QVQLVESGGRLVQAGGSIRLSCAASGRIFGAYAMGWYRQAPGKERELVAAITQSGGSTFYADSVKGRFTISRDNAKNTVYLQMNSLKPEVTAVYYWGQGTQVTVSS | low polyreactivity |
| QVQLVESVGGLVQAGGSLRLSCAASGNTFRRNVMGLYRQAPGKERELVAAINRGGSTYYADSVKGRFTISRDNAKNTVYLQMNSLKPEDTAVYYCNAVTRGYYHEMEYWGQGTQVTVSS | high polyreactivity |
| QVQLVESGGGLVQAGGSLRLSCAASGRIFGYYAMGGYRQAPGKERELVASISYSGASSYYADSVKGRFTISRDNAKNTVYLQMNSLKPEDTAVYYCNTDGDDFFHVIYDYWGQGTQVTVSS | low polyreactivity |
| QVQLVESGGGLVQAGGSLRLSCAASGRIFKVNTMGWYRQAPGKERELVASIRGGGSTNYADSVKGRFTISRDNAKNTVNLQMHSPKPEDTAVYYCAAGTSKPTPIYGYWGQGTQVTVSS | low polyreactivity |
| QVQLVESGGGLVQAGGSLRLSCSSSGLIFRRNAMGWYRQAPGKERELVAVIDRGGRTNYADSVKGRFTISRDNAKNTVYLQMNSLKPEDTAVYYCDKRYASTSGYWGQGTQVTVSS | high polyreactivity |
| QVQLVESGGGLVQPGGSLRLSCAASGRTIERNTMGWYRQAPGKERELFAAISYDGGSTYYADSVKGRFTISRDNAKNTVYLQMNSLKPEDTAVYYCNAGGSEIYRSPFDYWGQGTEVTVSS | low polyreactivity |
| QDQLVESGGGLVQAGGSLRLSCAASGRTLVGNAMGLYRQAHGKERELVAAISLSDDITYYADSVKGRFTISRDNAKKTFYLQMNSLKPEDTAVYYCAAVYPGDSDFLGSYEESDSWGQGTQVTVSS | low polyreactivity |
| QVQLVETGGGLVQAGGSLRLSCAASGRIFYYKAKGWYRQAPGKERELVASISWDASSTYYADSVKGRFTISRDNAKNTVYLQMNSLKPEDTAVYYCNIKHLYRQYDYWGQGTQVTVSS | low polyreactivity |
| QVQLVESGGGLVQAGGSLRLSCAASGSTFYTYAMGWYRQAPGKERELVAAISWRTGSTYYADSVKGRFTISRDNAKNTVYLQMNSLKPEDTAVYYCATDYYIDTWDWYEEYEYWGQGTQVTVSS | high polyreactivity |
| QVQLVESGGGLVQAGGSLRLSCAASGGTFAANDMGWYRQAPGKEREFVAAIDWSGGSTYYADSVKGRFTISRDNAKNTVYLQMNSLKPVDTAVYYCNAGPAVRSAYSTPYYDYWGQGTQVTVSS | low polyreactivity |
| QVHLVESGGGLVQAGGSLRLSCAASGFTFGINAMGWYRQAPGKERELVAAINQSGDRTYYADSVKGRFTISRDNAKNPVYLELNSLKPDDTAVYYCAADTSYWYDYYIDYVGYYYWGQGTQVTVSS | high polyreactivity |
| QVQLVESGGGLVQAGGSLRLSCAASGRTFQNYAMGWYRQAPGKERELVADITSGGSTYADSVKGRFTMSRDNAKNTVYLQMNSLKPEDTAVYYCNADRTYPEPAEYYYWGQGTQVTVSS | low polyreactivity |

| Sequence | polyreactivity (PSR sort gate) |
| --- | --- |
| QVQLVESCGGLVQAGGSLRLSCAASGSIFRSFAMGWYREAPWKERELVAAISSGGRTKYADSVKGRFTISRDNAKNTVYLQMNSLKPEDTAVYYCAARVNVKYYGFYYWGQGTQVTVSS | high polyreactivity |
| QVQLVESGGGLVQAGGSLRLSCAASGSIFSSYAMGWYRQAPGKERELVASISRRGGSTYYADSVKGRFTISRDNAKNTVYLQMNSLKPEDTAVYYCNASGGPYRYYYWGQGTQVTVSS | low polyreactivity |
| QVQLVESGGGLVQAGGSLRLSCAASGITFEYFDRGWYRQAPGKERELVAAISWSTDITYADSVKGRFTISRDNAKNTVYLQMNSLKPEDTAVYYCAASTYEYTSYDYWGQGTQVTVSS | low polyreactivity |
| QVQLVESGGGLVQAGGSLLLSCAASGFTFRYYAMGWYRQAPGKERELVAAITGSGTRTYYADSVKGRFTISRDYGKNTVYLQMNSLKPEDPAVYYCNAPRQPRWFDYWGQGTQVTVSS | high polyreactivity |
| QVQLVESGGGLVQAGGSLRLSCAASGFILQYNAMGWYRQAPGKERELVAAITRSGVSTYYADSVKGRFTISRDNAKNTVYLQMNSLKPEDTAVYYCAATGGDRYEAYYYWGQGTQVTVSS | low polyreactivity |
| QVQLVESGVGLVQAGGSLRLSCAASGITFDENTMGWYIQAPGKERELVAAITEIGGSTYYADSVKGRFTISRDNAKNTVYLQMNSLKPEDTAVYYCNADRWVVRFVDYEYWGQGTQVTVSS | low polyreactivity |
| QVQLVESGGGLVQAGGSLRLSCAASGSTFNRNAMGWYRQAPGKERELVASISSGDNTKYADSVKGRFTISRDNAKNTVYLKMNSLKPEDTAVYYCNTVNKSLYAGLRKRWGGYYYWGQGTQVTVSS | high polyreactivity |
| QVQLVESGGGLVQAGGSLRLSCAGSGFIITQYPMGWYRQAPGKERELVAAISGNGGRTYYADSVKGRFTISRDNAKNTDYLQMNSLKPEDTAVYYCAVTRPGRRYPFGYDYWGQGTQVTVSS | low polyreactivity |
| QVQLVETGGGLVQAGGSLRLSCAASGGIFGRNAMGWYRQAPGKERELVASISKSGGSTYYADSVKGRFTISRDNAKNTVYLQMNSLKPEDTAVYYCAARYSYFNWDNYYWGQGTQVTVSS | high polyreactivity |
| QVQLVESGGGLVQVGGSLRLSCAASGFIFTHYAMGWYRQAPGKERELVAAISVDGGDTYYADSVKGRFTISRDNAKNTVYLQMNSLKPEDTAVYYYWGQGTQVTVSS | low polyreactivity |
| QVQLVESGGGLVQAGGSLRLSCAASGIIFHPYAMGWYRQAPGKERELVAVITWPGDSTYYADSVKGRFTISRDNAKNTVYLQMNSLKPEDTAVYYCNVDAWGTSGELPYDYWGQGSQVTVSS | low polyreactivity |
| QVQLVESGGGLVQAGGSLRLSCAASGSTFSFYAMGWYRQAPGQERELVAAIRAGTRTYYADSVKGRFTISRDNAKNTVYLQMNSLKPEDTAVYYCAATRRRYPYYYWGQGTQVTVSS | high polyreactivity |
| QVQLEESGGGLVQAGGSHRLSCAASGSTIYAYTMGWYRQAPGKERELVARISGRGGSTYYADSVKGRFTISRDNAKNTVYLQMNSLKQEDTAVYYCAARRKFDYWGQGTQVTVSS | high polyreactivity |
| QVQLVESGGGLVQAGGSLRLSCAASGSIFDSNAMGWYRQAPGKERELVADIRGIGGSTYYADSVKGRFTISRDNAKNTVYLQMNSLKPEDTAVYYCNTSTLGGYYWGQGTQVTVSS | low polyreactivity |
| QVQLVESGGGLVQAGGSLSLSCAASGFTFGRNAMGWYRQAPGKERELVASIDWSGGSTYYADSVKGRFTISRDNAKNTVYLQMNSLKPEDTAVYYCAVGPNSVGNRSYGFDYWGQGTQVTVSS | low polyreactivity |
| QVQLVESGGGLVQAGGSLRFSCAASGGTFSGYAMGWYRQAPGKERELVAAITSGGGTTYADSVKGRFTISRDNAKNTVYLQMNSLKPEDTAVYYCAKEGHVVIFYIGQYELDYWGQGTQVTVSS | low polyreactivity |
| QVQLVESGGGLVQAGGSLRLSCAASGSTFWYYAMGWYRQAPGKERELVAAITSGDSTYYADSVKGRFTISRDNAKNTVYLQMNSLKPEDTAVYYCAADLPWEDGYYFYSGYTEYDYWGQGTQVTVSS | low polyreactivity |
| QVQLVESGGGLVQAGGSLRLSCAASGSIFSGYAMGWYRQAPGKERELVAAITRSGGRTYYADSVKGRFTISRDNAKNTVYLQMNSLKPEDTAVYYCATLPRYYGYWGQGTQVTVSS | high polyreactivity |
| QVQLVESGGGLVQAGGSLRLSCAASGIIIQINAMGWYRQAPGKERELVAAITIDGTTNYADSVKGRFTISRDNAKNTVYLQMNSLKPEDTAVYYCARRRSVYVWEPYQYDYWGQGTQVTVSS | low polyreactivity |
| QVQLVESGGGLVQAGGSLRLSCAASGSTLWIYAMGWYRQAPGKERELVAAISWSTGRTYYADSVKGRFTISRDNAKNTVYLQMNSLKPVDTAVYYCNAGPQHNTLKLFYYWGQGTQVTVSS | low polyreactivity |
| QVQLVESGGGLVQAGGSLRLSCAASGSTFKTYAMGWYRQAPGKERELVAAITSSGGRTYYADSVKGRFTISRDNAKNTVYLQMNSLKPEDTAVYYCAAVRRSYNQLDYWGQGTQVTVSS | high polyreactivity |
